From patent publication US20200199204A1 (UNITED STATES OF AMERICA AS REPRESENTED BY THE SECRETARY …, published 2020)

Key:
Assay in all cases: cell-based or functional assay
HIV-1 Env of CAP256.PI = HIV-1 Env of CAP256.PI (HIV-1)
HIV-1 Env of CAP256.SU = HIV-1 Env of CAP256.SU (HIV-1)
HIV-1 Env of 96ZM651.02 = HIV-1 Env of 96ZM651.02 (HIV-1)
HIV-1 Env of CAP210.E8 = HIV-1 Env of CAP210.E8 (HIV-1)
HIV-1 Env of CAP244.D3 = HIV-1 Env of CAP244.D3 (HIV-1)
HIV-1 Env of CAP45.G3 = HIV-1 Env of CAP45.G3 (HIV-1)
HIV-1 Env of DU156.12 = HIV-1 Env of DU156.12 (HIV-1)
HIV-1 Env of DU172.17 = HIV-1 Env of DU172.17 (HIV-1)
HIV-1 Env of DU422.01 = HIV-1 Env of DU422.01 (HIV-1)
HIV-1 Env of ZM109.4 = HIV-1 Env of ZM109.4 (HIV-1)
HIV-1 Env of ZM135.10a = HIV-1 Env of ZM135.10a (HIV-1)
HIV-1 Env of ZM197.7 = HIV-1 Env of ZM197.7 (HIV-1)
HIV-1 Env of ZM214.15 = HIV-1 Env of ZM214.15 (HIV-1)
HIV-1 Env of ZM233.6 = HIV-1 Env of ZM233.6 (HIV-1)
HIV-1 Env of ZM249.1 = HIV-1 Env of ZM249.1 (HIV-1)
HIV-1 Env of ZM53.12 = HIV-1 Env of ZM53.12 (HIV-1)
HIV-1 Env of 0260.v5.c36 = HIV-1 Env of 0260.v5.c36 (HIV-1)
HIV-1 Env of BG505.w6m = HIV-1 Env of BG505.w6m (HIV-1)
HIV-1 Env of KER2008.12 = HIV-1 Env of KER2008.12 (HIV-1)
HIV-1 Env of KER2018.11 = HIV-1 Env of KER2018.11 (HIV-1)
HIV-1 Env of MB201 = HIV-1 Env of MB201 (HIV-1)
HIV-1 Env of MB539.2B7 = HIV-1 Env of MB539.2B7 (HIV-1)
HIV-1 Env of Q168.a2 = HIV-1 Env of Q168.a2 (HIV-1)
HIV-1 Env of Q23.17 = HIV-1 Env of Q23.17 (HIV-1)
HIV-1 Env of Q259.d2.17 = HIV-1 Env of Q259.d2.17 (HIV-1)
HIV-1 Env of Q461.e2 = HIV-1 Env of Q461.e2 (HIV-1)
HIV-1 Env of Q769.d22 = HIV-1 Env of Q769.d22 (HIV-1)
HIV-1 Env of Q842.d12 = HIV-1 Env of Q842.d12 (HIV-1)
HIV-1 Env of RW020.2 = HIV-1 Env of RW020.2 (HIV-1)
HIV-1 Env of UG037.8 = HIV-1 Env of UG037.8 (HIV-1)
HIV-1 Env of 6535.3 = HIV-1 Env of 6535.3 (HIV-1)
HIV-1 Env of AC10.29 = HIV-1 Env of AC10.29 (HIV-1)
HIV-1 Env of CAAN.A2 = HIV-1 Env of CAAN.A2 (HIV-1)
HIV-1 Env of PVO.04 = HIV-1 Env of PVO.04 (HIV-1)
HIV-1 Env of QH0692.42 = HIV-1 Env of QH0692.42 (HIV-1)
HIV-1 Env of REJO.67 = HIV-1 Env of REJO.67 (HIV-1)
HIV-1 Env of RHPA.7 = HIV-1 Env of RHPA.7 (HIV-1)
HIV-1 Env of SC422.8 = HIV-1 Env of SC422.8 (HIV-1)
HIV-1 Env of THRO.18 = HIV-1 Env of THRO.18 (HIV-1)
HIV-1 Env of TRJO.58 = HIV-1 Env of TRJO.58 (HIV-1)
HIV-1 Env of TRO.11 = HIV-1 Env of TRO.11 (HIV-1)
HIV-1 Env of WITO.33 = HIV-1 Env of WITO.33 (HIV-1)
HIV-1 Env of 3016.V5.c36 = HIV-1 Env of 3016.V5.c36 (HIV-1)
HIV-1 Env of 6405.v4.c34 = HIV-1 Env of 6405.v4.c34 (HIV-1)
HIV-1 Env of C1080.c3 = HIV-1 Env of C1080.c3 (HIV-1)
HIV-1 Env of CM244.ec1 = HIV-1 Env of CM244.ec1 (HIV-1)
HIV-1 Env of CNE3 = HIV-1 Env of CNE3 (HIV-1)
HIV-1 Env of TH976.17 = HIV-1 Env of TH976.17 (HIV-1)

B1: CAP256-VRC26.26 (antibody, V domains shown)
VH: EVQLVESGGGIVQPGRSLTLSCVASQFAFSHYGMHWVRQAPGKGLEWVASISRDETKKYHGDSVWDRFSISRDNSKNTLFLQMNSLRAEDTALYFCVRDQREDECEEWWSDYYDFGKELPCRKFRGLGLAGIFDVWGHGTMVIVSS
VL: QSALTQPPSVSAAPGQKVSISCSGNNSNIGNNFISWFQQFPGTAPKPLIYETYKRHSGIPDRFSGSKSGTSATLAITGLQTGDEADYYCATWGVRQGVGALFGTGTKVTVLG
- IC50 (neutralization, TZM-bl) (HIV-1 Env of CAP256.PI): > 50 µg/mL
- IC50 (neutralization, TZM-bl) (HIV-1 Env of CAP256.SU): 0.003 µg/mL
- IC50 (neutralization, TZM-bl) (HIV-1 Env of 96ZM651.02): 0.111 µg/mL
- IC50 (neutralization, TZM-bl) (HIV-1 Env of CAP210.E8): 0.007 µg/mL
- IC50 (neutralization, TZM-bl) (HIV-1 Env of CAP244.D3): 36.6 µg/mL
- IC50 (neutralization, TZM-bl) (HIV-1 Env of CAP45.G3): 0.08 µg/mL
- IC50 (neutralization, TZM-bl) (HIV-1 Env of DU156.12): 0.013 µg/mL
- IC50 (neutralization, TZM-bl) (HIV-1 Env of DU172.17): 0.5 µg/mL
- IC50 (neutralization, TZM-bl) (HIV-1 Env of DU422.01): 0.08 µg/mL
- IC50 (neutralization, TZM-bl) (HIV-1 Env of ZM109.4): 0.025 µg/mL
- IC50 (neutralization, TZM-bl) (HIV-1 Env of ZM135.10a): > 50 µg/mL
- IC50 (neutralization, TZM-bl) (HIV-1 Env of ZM197.7): 0.011 µg/mL
- IC50 (neutralization, TZM-bl) (HIV-1 Env of ZM214.15): 14.1 µg/mL
- IC50 (neutralization, TZM-bl) (HIV-1 Env of ZM233.6): 0.001 µg/mL
- IC50 (neutralization, TZM-bl) (HIV-1 Env of ZM249.1): 0.023 µg/mL
- IC50 (neutralization, TZM-bl) (HIV-1 Env of ZM53.12): 0.001 µg/mL
- IC50 (neutralization, TZM-bl) (HIV-1 Env of 0260.v5.c36): 0.78 µg/mL
- IC50 (neutralization, TZM-bl) (HIV-1 Env of BG505.w6m): 0.066 µg/mL
- IC50 (neutralization, TZM-bl) (HIV-1 Env of KER2008.12): > 50 µg/mL
- IC50 (neutralization, TZM-bl) (HIV-1 Env of KER2018.11): 0.001 µg/mL
- IC50 (neutralization, TZM-bl) (HIV-1 Env of MB201): > 50 µg/mL
- IC50 (neutralization, TZM-bl) (HIV-1 Env of MB539.2B7): 0.634 µg/mL
- IC50 (neutralization, TZM-bl) (HIV-1 Env of Q168.a2): 0.005 µg/mL
- IC50 (neutralization, TZM-bl) (HIV-1 Env of Q23.17): > 50 µg/mL
- IC50 (neutralization, TZM-bl) (HIV-1 Env of Q259.d2.17): 0.011 µg/mL
- IC50 (neutralization, TZM-bl) (HIV-1 Env of Q461.e2): 0.024 µg/mL
- IC50 (neutralization, TZM-bl) (HIV-1 Env of Q769.d22): > 50 µg/mL
- IC50 (neutralization, TZM-bl) (HIV-1 Env of Q842.d12): 17.1 µg/mL
- IC50 (neutralization, TZM-bl) (HIV-1 Env of RW020.2): > 50 µg/mL
- IC50 (neutralization, TZM-bl) (HIV-1 Env of UG037.8): > 50 µg/mL
- IC50 (neutralization, TZM-bl) (HIV-1 Env of 6535.3): > 50 µg/mL
- IC50 (neutralization, TZM-bl) (HIV-1 Env of AC10.29): > 50 µg/mL
- IC50 (neutralization, TZM-bl) (HIV-1 Env of CAAN.A2): > 50 µg/mL
- IC50 (neutralization, TZM-bl) (HIV-1 Env of PVO.04): 0.562 µg/mL
- IC50 (neutralization, TZM-bl) (HIV-1 Env of QH0692.42): > 50 µg/mL
- IC50 (neutralization, TZM-bl) (HIV-1 Env of REJO.67): > 50 µg/mL
- IC50 (neutralization, TZM-bl) (HIV-1 Env of RHPA.7): > 50 µg/mL
- IC50 (neutralization, TZM-bl) (HIV-1 Env of SC422.8): 1.74 µg/mL
- IC50 (neutralization, TZM-bl) (HIV-1 Env of THRO.18): 0.667 µg/mL
- IC50 (neutralization, TZM-bl) (HIV-1 Env of TRJO.58): > 50 µg/mL
- IC50 (neutralization, TZM-bl) (HIV-1 Env of TRO.11): > 50 µg/mL
- IC50 (neutralization, TZM-bl) (HIV-1 Env of WITO.33): > 50 µg/mL
- IC50 (neutralization, TZM-bl) (HIV-1 Env of 3016.V5.c36): 0.022 µg/mL
- IC50 (neutralization, TZM-bl) (HIV-1 Env of 6405.v4.c34): > 50 µg/mL
- IC50 (neutralization, TZM-bl) (HIV-1 Env of C1080.c3): 0.016 µg/mL
- IC50 (neutralization, TZM-bl) (HIV-1 Env of CM244.ec1): 0.047 µg/mL
- IC50 (neutralization, TZM-bl) (HIV-1 Env of CNE3): > 50 µg/mL
- IC50 (neutralization, TZM-bl) (HIV-1 Env of TH976.17): > 50 µg/mL
